For the experiment, the target named is human corticotropin-releasing factor 2α (CRF2 α receptor) (human), Q13324. Nature of the experiment: cell-based or functional assay.

Starred links: 1 amine or outer side, 2 acyl side, 3 side chain; linkers in the order of their positions; H or OH if unused. Non-standard residues stand in square brackets, D forms with d. Groups on a side chain read outwards from the residue. No end group written: not given here. *: point of attachment. C18 diacid = O=C(O)CCCCCCCCCCCCCCCCC(=O)*; γGlu = O=C(O)[C@H](CCC(=O)[*:2])N[*:1]; Palmitoyl = CCCCCCCCCCCCCCCC(=O)*; AEEA = NCCOCCOCC(=O)O; Aib = CC(C)(N)C(=O)O

Chain of human corticotropin-releasing factor 2α (CRF2 α receptor) (human), Q13324 (Q13324 20-411): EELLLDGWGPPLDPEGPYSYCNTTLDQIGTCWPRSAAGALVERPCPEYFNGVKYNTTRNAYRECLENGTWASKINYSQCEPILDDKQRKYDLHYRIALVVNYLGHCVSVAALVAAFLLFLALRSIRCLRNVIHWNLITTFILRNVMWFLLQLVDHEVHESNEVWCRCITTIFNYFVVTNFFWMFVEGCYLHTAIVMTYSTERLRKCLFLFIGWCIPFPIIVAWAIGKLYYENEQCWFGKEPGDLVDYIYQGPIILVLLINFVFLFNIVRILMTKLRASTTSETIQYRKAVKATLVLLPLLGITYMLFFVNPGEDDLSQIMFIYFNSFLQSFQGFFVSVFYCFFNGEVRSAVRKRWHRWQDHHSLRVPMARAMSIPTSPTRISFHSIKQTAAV

B1: SEQ ID NO: 44 (peptide)
peptide: IVLSLDVPIKLK([AEEA-AEEA-γGlu-C18 diacid])QILLEQAKQKKERAQAETNVRILERV-NH2
modifications: N-terminus assumed
SMILES: CC[C@H](C)[C@H](N)C(=O)N[C@H](C(=O)N[C@@H](CC(C)C)C(=O)N[C@@H](CO)C(=O)N[C@@H](CC(C)C)C(=O)N[C@@H](CC(=O)O)C(=O)N[C@H](C(=O)N1CCC[C@H]1C(=O)N[C@H](C(=O)N[C@@H](CCCCN)C(=O)N[C@@H](CC(C)C)C(=O)N[C@@H](CCCCNC(=O)COCCOCCNC(=O)COCCOCCNC(=O)CC[C@H](NC(=O)CCCCCCCCCCCCCCCCC(=O)O)C(=O)O)C(=O)N[C@@H](CCC(N)=O)C(=O)N[C@H](C(=O)N[C@@H](CC(C)C)C(=O)N[C@@H](CC(C)C)C(=O)N[C@@H](CCC(=O)O)C(=O)N[C@@H](CCC(N)=O)C(=O)N[C@@H](C)C(=O)N[C@@H](CCCCN)C(=O)N[C@@H](CCC(N)=O)C(=O)N[C@@H](CCCCN)C(=O)N[C@@H](CCCCN)C(=O)N[C@@H](CCC(=O)O)C(=O)N[C@@H](CCCNC(=N)N)C(=O)N[C@@H](C)C(=O)N[C@@H](CCC(N)=O)C(=O)N[C@@H](C)C(=O)N[C@@H](CCC(=O)O)C(=O)N[C@H](C(=O)N[C@@H](CC(N)=O)C(=O)N[C@H](C(=O)N[C@@H](CCCNC(=N)N)C(=O)N[C@H](C(=O)N[C@@H](CC(C)C)C(=O)N[C@@H](CCC(=O)O)C(=O)N[C@@H](CCCNC(=N)N)C(=O)N[C@H](C(N)=O)C(C)C)[C@@H](C)CC)C(C)C)[C@@H](C)O)[C@@H](C)CC)[C@@H](C)CC)C(C)C)C(C)C
Take B1: the EC50 [nM], 0% HSA is 13.7 nM.

B2: SEQ ID NO: 41 (peptide)
peptide: IVLSLDVPIKLK([AEEA-AEEA-γGlu-C18 diacid])QILLEQERQRKERQQAEKNVRILERV-NH2
modifications: N-terminus assumed
SMILES: CC[C@H](C)[C@H](N)C(=O)N[C@H](C(=O)N[C@@H](CC(C)C)C(=O)N[C@@H](CO)C(=O)N[C@@H](CC(C)C)C(=O)N[C@@H](CC(=O)O)C(=O)N[C@H](C(=O)N1CCC[C@H]1C(=O)N[C@H](C(=O)N[C@@H](CCCCN)C(=O)N[C@@H](CC(C)C)C(=O)N[C@@H](CCCCNC(=O)COCCOCCNC(=O)COCCOCCNC(=O)CC[C@H](NC(=O)CCCCCCCCCCCCCCCCC(=O)O)C(=O)O)C(=O)N[C@@H](CCC(N)=O)C(=O)N[C@H](C(=O)N[C@@H](CC(C)C)C(=O)N[C@@H](CC(C)C)C(=O)N[C@@H](CCC(=O)O)C(=O)N[C@@H](CCC(N)=O)C(=O)N[C@@H](CCC(=O)O)C(=O)N[C@@H](CCCNC(=N)N)C(=O)N[C@@H](CCC(N)=O)C(=O)N[C@@H](CCCNC(=N)N)C(=O)N[C@@H](CCCCN)C(=O)N[C@@H](CCC(=O)O)C(=O)N[C@@H](CCCNC(=N)N)C(=O)N[C@@H](CCC(N)=O)C(=O)N[C@@H](CCC(N)=O)C(=O)N[C@@H](C)C(=O)N[C@@H](CCC(=O)O)C(=O)N[C@@H](CCCCN)C(=O)N[C@@H](CC(N)=O)C(=O)N[C@H](C(=O)N[C@@H](CCCNC(=N)N)C(=O)N[C@H](C(=O)N[C@@H](CC(C)C)C(=O)N[C@@H](CCC(=O)O)C(=O)N[C@@H](CCCNC(=N)N)C(=O)N[C@H](C(N)=O)C(C)C)[C@@H](C)CC)C(C)C)[C@@H](C)CC)[C@@H](C)CC)C(C)C)C(C)C
B2 gave an EC50 [nM], 0% HSA of 15.6 nM.

B3: SEQ ID NO: 40 (peptide)
peptide: IVLSLDVPIKLK([AEEA-AEEA-γGlu-C18 diacid])QILLEQERQRKERQQAETNVQILAQV-NH2
modifications: N-terminus assumed
SMILES: CC[C@H](C)[C@H](N)C(=O)N[C@H](C(=O)N[C@@H](CC(C)C)C(=O)N[C@@H](CO)C(=O)N[C@@H](CC(C)C)C(=O)N[C@@H](CC(=O)O)C(=O)N[C@H](C(=O)N1CCC[C@H]1C(=O)N[C@H](C(=O)N[C@@H](CCCCN)C(=O)N[C@@H](CC(C)C)C(=O)N[C@@H](CCCCNC(=O)COCCOCCNC(=O)COCCOCCNC(=O)CC[C@H](NC(=O)CCCCCCCCCCCCCCCCC(=O)O)C(=O)O)C(=O)N[C@@H](CCC(N)=O)C(=O)N[C@H](C(=O)N[C@@H](CC(C)C)C(=O)N[C@@H](CC(C)C)C(=O)N[C@@H](CCC(=O)O)C(=O)N[C@@H](CCC(N)=O)C(=O)N[C@@H](CCC(=O)O)C(=O)N[C@@H](CCCNC(=N)N)C(=O)N[C@@H](CCC(N)=O)C(=O)N[C@@H](CCCNC(=N)N)C(=O)N[C@@H](CCCCN)C(=O)N[C@@H](CCC(=O)O)C(=O)N[C@@H](CCCNC(=N)N)C(=O)N[C@@H](CCC(N)=O)C(=O)N[C@@H](CCC(N)=O)C(=O)N[C@@H](C)C(=O)N[C@@H](CCC(=O)O)C(=O)N[C@H](C(=O)N[C@@H](CC(N)=O)C(=O)N[C@H](C(=O)N[C@@H](CCC(N)=O)C(=O)N[C@H](C(=O)N[C@@H](CC(C)C)C(=O)N[C@@H](C)C(=O)N[C@@H](CCC(N)=O)C(=O)N[C@H](C(N)=O)C(C)C)[C@@H](C)CC)C(C)C)[C@@H](C)O)[C@@H](C)CC)[C@@H](C)CC)C(C)C)C(C)C
As to B3, the EC50 [nM], 0% HSA amounted to 15.4 nM.

B4: SEQ ID NO: 42 (peptide)
peptide: IVLSLDVPIKLK([AEEA-AEEA-γGlu-C18 diacid])QILLEQERQR[Aib]ERQQAEKNVRILERV-NH2
modifications: N-terminus assumed
SMILES: CC[C@H](C)[C@H](N)C(=O)N[C@H](C(=O)N[C@@H](CC(C)C)C(=O)N[C@@H](CO)C(=O)N[C@@H](CC(C)C)C(=O)N[C@@H](CC(=O)O)C(=O)N[C@H](C(=O)N1CCC[C@H]1C(=O)N[C@H](C(=O)N[C@@H](CCCCN)C(=O)N[C@@H](CC(C)C)C(=O)N[C@@H](CCCCNC(=O)COCCOCCNC(=O)COCCOCCNC(=O)CC[C@H](NC(=O)CCCCCCCCCCCCCCCCC(=O)O)C(=O)O)C(=O)N[C@@H](CCC(N)=O)C(=O)N[C@H](C(=O)N[C@@H](CC(C)C)C(=O)N[C@@H](CC(C)C)C(=O)N[C@@H](CCC(=O)O)C(=O)N[C@@H](CCC(N)=O)C(=O)N[C@@H](CCC(=O)O)C(=O)N[C@@H](CCCNC(=N)N)C(=O)N[C@@H](CCC(N)=O)C(=O)N[C@@H](CCCNC(=N)N)C(=O)NC(C)(C)C(=O)N[C@@H](CCC(=O)O)C(=O)N[C@@H](CCCNC(=N)N)C(=O)N[C@@H](CCC(N)=O)C(=O)N[C@@H](CCC(N)=O)C(=O)N[C@@H](C)C(=O)N[C@@H](CCC(=O)O)C(=O)N[C@@H](CCCCN)C(=O)N[C@@H](CC(N)=O)C(=O)N[C@H](C(=O)N[C@@H](CCCNC(=N)N)C(=O)N[C@H](C(=O)N[C@@H](CC(C)C)C(=O)N[C@@H](CCC(=O)O)C(=O)N[C@@H](CCCNC(=N)N)C(=O)N[C@H](C(N)=O)C(C)C)[C@@H](C)CC)C(C)C)[C@@H](C)CC)[C@@H](C)CC)C(C)C)C(C)C
Take B4: the EC50 [nM], 0% HSA stood at 15.4 nM.

B5: SEQ ID NO: 2 (peptide)
peptide: IVLSLDVPIKLK([γGlu-Palmitoyl])KILLEQEKQEKEKQQAETNAQILAQV-NH2
modifications: N-terminus assumed
SMILES: CCCCCCCCCCCCCCCC(=O)N[C@@H](CCC(=O)NCCCC[C@H](NC(=O)[C@H](CC(C)C)NC(=O)[C@H](CCCCN)NC(=O)[C@@H](NC(=O)[C@@H]1CCCN1C(=O)[C@@H](NC(=O)[C@H](CC(=O)O)NC(=O)[C@H](CC(C)C)NC(=O)[C@H](CO)NC(=O)[C@H](CC(C)C)NC(=O)[C@@H](NC(=O)[C@@H](N)[C@@H](C)CC)C(C)C)C(C)C)[C@@H](C)CC)C(=O)N[C@@H](CCCCN)C(=O)N[C@H](C(=O)N[C@@H](CC(C)C)C(=O)N[C@@H](CC(C)C)C(=O)N[C@@H](CCC(=O)O)C(=O)N[C@@H](CCC(N)=O)C(=O)N[C@@H](CCC(=O)O)C(=O)N[C@@H](CCCCN)C(=O)N[C@@H](CCC(N)=O)C(=O)N[C@@H](CCC(=O)O)C(=O)N[C@@H](CCCCN)C(=O)N[C@@H](CCC(=O)O)C(=O)N[C@@H](CCCCN)C(=O)N[C@@H](CCC(N)=O)C(=O)N[C@@H](CCC(N)=O)C(=O)N[C@@H](C)C(=O)N[C@@H](CCC(=O)O)C(=O)N[C@H](C(=O)N[C@@H](CC(N)=O)C(=O)N[C@@H](C)C(=O)N[C@@H](CCC(N)=O)C(=O)N[C@H](C(=O)N[C@@H](CC(C)C)C(=O)N[C@@H](C)C(=O)N[C@@H](CCC(N)=O)C(=O)N[C@H](C(N)=O)C(C)C)[C@@H](C)CC)[C@@H](C)O)[C@@H](C)CC)C(=O)O
In turn, B5 showed an EC50 [nM], 0% HSA of 0.01 nM and an EC50 [nM], 0.1% HSA of 0.01 nM.

B6: SEQ ID NO: 43 (peptide)
peptide: IVLSLDVPIKLK([AEEA-AEEA-γGlu-C18 diacid])QILLEQAKQKKLRAQAETNVRILERV-NH2
modifications: N-terminus assumed
SMILES: CC[C@H](C)[C@H](N)C(=O)N[C@H](C(=O)N[C@@H](CC(C)C)C(=O)N[C@@H](CO)C(=O)N[C@@H](CC(C)C)C(=O)N[C@@H](CC(=O)O)C(=O)N[C@H](C(=O)N1CCC[C@H]1C(=O)N[C@H](C(=O)N[C@@H](CCCCN)C(=O)N[C@@H](CC(C)C)C(=O)N[C@@H](CCCCNC(=O)COCCOCCNC(=O)COCCOCCNC(=O)CC[C@H](NC(=O)CCCCCCCCCCCCCCCCC(=O)O)C(=O)O)C(=O)N[C@@H](CCC(N)=O)C(=O)N[C@H](C(=O)N[C@@H](CC(C)C)C(=O)N[C@@H](CC(C)C)C(=O)N[C@@H](CCC(=O)O)C(=O)N[C@@H](CCC(N)=O)C(=O)N[C@@H](C)C(=O)N[C@@H](CCCCN)C(=O)N[C@@H](CCC(N)=O)C(=O)N[C@@H](CCCCN)C(=O)N[C@@H](CCCCN)C(=O)N[C@@H](CC(C)C)C(=O)N[C@@H](CCCNC(=N)N)C(=O)N[C@@H](C)C(=O)N[C@@H](CCC(N)=O)C(=O)N[C@@H](C)C(=O)N[C@@H](CCC(=O)O)C(=O)N[C@H](C(=O)N[C@@H](CC(N)=O)C(=O)N[C@H](C(=O)N[C@@H](CCCNC(=N)N)C(=O)N[C@H](C(=O)N[C@@H](CC(C)C)C(=O)N[C@@H](CCC(=O)O)C(=O)N[C@@H](CCCNC(=N)N)C(=O)N[C@H](C(N)=O)C(C)C)[C@@H](C)CC)C(C)C)[C@@H](C)O)[C@@H](C)CC)[C@@H](C)CC)C(C)C)C(C)C
As for B6, the EC50 [nM], 0% HSA was found to be 1.9 nM.

Source of the values: patent publication US12679878B2, “CRF2 receptor agonists and their use in therapy” (SANOFI, priority 2020, dated 2026).
